# Reference: publication PMC11557686
# B1: SmBiT-SEC24A [not stated] / LgBiT-SURF4 [not stated] (parent)
# chain 1: MSQPGIPASGGAPASLQAQNGAALASGSPYTNGPVQNALLSSQESVSQGYNFQLPGSYPHPIPAKTLNPVSGQSNYGGSQGSGQTLNRPPVASNPVTPSLHSGPAPRMPLPASQNPATTPMPSSSFLPEANLPPPLNWQYNYPSTASQTNHCPRASSQPTVSGNTSLTTNHQYVSSGYPSLQNSFIKSGPSVPPLVNPPLPTTFQPGAPHGPPPAGGPPPVRALTPLTSSYRDVPQPLFNSAVNQEGITSNTNNGSMVVHSSYDEIEGGGLLATPQLTNKNPKMSRSVGYSYPSLPPGYQNTTPPGATGVPPSSLNYPSGPQAFTQTPLGANHLTTSMSGLSLQPEGLRVVNLLQERNMLPSTPLKPPVPNLHEDIQKLNCNPELFRCTLTSIPQTQALLNKAKLPLGLLLHPFKDLVQLPVVTSSTIVRCRSCRTYINPFVSFLDQRRWKCNLCYRVNDVPEEFLYNPLTRVYGEPHRRPEVQNATIEFMAPSEYMLRPPQPPVYLFVFDVSHNAVETGYLNSVCQSLLDNLDLLPGNTRTKIGFITFDSTIHFYGLQESLSQPQMLIVSDIEDVFIPMPENLLVNLNESKELVQDLLKTLPQMFTKTLETQSALGPALQAAFKLMSPTGGRMSVFQTQLPTLGVGALKPREEPNHRSSAKDIHMTPSTDFYKKLALDCSGQQVAVDLFLLSGQYSDLASLGCISRYSAGSVYYYPSYHHQHNPVQVQKLQKELQRYLTRKIGFEAVMRIRCTKGLSIHTFHGNFFVRSTDLLSLPNVNPDAGYAVQMSVEESLTDTQLVSFQSALLYTSSKGERRIRVHTLCLPVVSTLNDVFLGADVQAISGLLANMAVDRSMTASLSDARDALVNAVIDSLSAYRSSVLSNQQPGLMVPFSLRLFPLFVLALLKQKSFQTGTNARLDERIFAMCQVKNQPLVYLMLTTHPSLYRVDNLSDEGALNISDRTIPQPPILQLSVEKLSRDGAFLMDAGSVLMLWVGKNCTQNFLSQVLGVQNYASIPQPMTDLPELDTPESARIIAFISWLREQRPFFPILYVIRDESPMKANFLQNMIEDRTESALSYYEFLLHIQQQVNK
# chain 2: MGQNDLMGTAEDFADQFLRVTKQYLPHVARLCLISTFLEDGIRMWFQWSEQRDYIDTTWNCGYLLASSFVFLNLLGQLTGCVLVLSRNFVQYACFGLFGIIALQTIAYSILWDLKFLMRNLALGGGLLLLLAESRSEGKSMFAGVPTMRESSPKQYMQLGGRVLLVLMFMTLLHFDASFFSIVQNIVGTALMILVAIGFKTKLAALTLVVWLFAINVYFNAFWTIPVYKPMHDFLKYDFFQTMSVIGGLLLVVALGPGGVSMDEKKKEW
# Variants of: B1
# Assay: NanoBiT
# Conditions: with LgBiT-SURF4; six technical replicates in each of three independent biological replicates; parent: 1; read off a plot
row,ratio to parent,Variant
1,0.5,chain 1 R750A R752A
2,0.62,chain 1 Y437A
3,1,chain 1 R541A
4,0.98,chain 1 K813A
